According to patent US20100311669A1:
Positions of bridges follow the written chain, without caps; N, C: chain ends. No end group written: not given here.

Target: Recombinant purified HER2 receptor composed of the ectodomain of HER2 fused to the Fc of human IgG (human) (UniProt P04626)
Test: SPR (Biacore 3000), HER2-Fc immobilized, peptide as analyte, 25 C

B1: AHNP analogue 8, …-OH (cyclic) (peptide)
peptide: FCGDGFYACYMDV-OH
modifications: disulfide 2-9
Kd: 760 nM
koff: 0.000701 s⁻¹
kon: 922 M⁻¹ s⁻¹
